Test [1] concerns the target T1, human TROP-2 (hTROP-2) endogenously expressed on the cell surface of human cancer cell lines (human, UniProt P09758 27-323).
T1 construct: also called TACSTD2; PK-59 cells
T1 sequence: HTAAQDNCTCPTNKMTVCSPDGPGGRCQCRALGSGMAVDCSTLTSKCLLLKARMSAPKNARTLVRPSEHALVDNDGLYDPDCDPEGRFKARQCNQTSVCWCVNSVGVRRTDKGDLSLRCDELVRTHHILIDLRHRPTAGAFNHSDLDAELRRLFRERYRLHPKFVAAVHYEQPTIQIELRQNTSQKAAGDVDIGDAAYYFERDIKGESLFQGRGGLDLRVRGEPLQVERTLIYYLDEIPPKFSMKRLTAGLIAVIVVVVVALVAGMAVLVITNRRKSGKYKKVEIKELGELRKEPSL
Nature of the test: FACS on BxPC-3 cells, 0.1 µg antibody. The method, then:
(§1) Cancer cells were removed from a culture dish by a trypsin treatment, and a cell suspension was then prepared (cell density: 2×10⁶ cells/mL). An anti-hTROP-2 monoclonal antibody (0.1 μg) was added to 100 μL of the cell suspension, and they were then reacted at 4° C. for 20 minutes. The reaction solution was washed with PBS, and it was then reacted with PE-labeled anti-mouse IgG (BD Biosciences Pharmingen) (0.1 μg) (at 4° C. for 30 minutes). Thereafter, the resultant was analyzed by FACSCalibur (Becton, Dickinson and Company).
(§2) Subsequently, the reactivity of the generated anti-hTROP-2 monoclonal antibodies with human cancer cell lines (in which an hTROP-2 protein was endogenously expressed on the cell surface) was examined by FACS analysis.

For test [2], the target named is T1, human TROP-2 (hTROP-2) endogenously …. Nature of the test: FACS on PK-59 cells, 0.1 µg antibody. The method, then: as §1, §2
In test [3] the target is T2, peptide No. 11 of Table 11 (SEQ ID NO: 219) (human).
T2 peptide: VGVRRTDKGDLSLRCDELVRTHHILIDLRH
Nature of the test: PEPSCAN/CLIPS peptide ELISA, antibody 1 µg/mL. The method, then: (§3) 5034 types of the synthesized peptides were covalently bound to PEPSCAN cards (455 peptides/card), and the binding of the synthesized peptides to antibodies was then analyzed by the ELISA method. […] After washing, the resultant was allowed to react with a 1000-fold diluted peroxidase-secondary antibody complex at 25° C. for 1 hour. After washing, a substrate solution (a solution containing 2,2′-azino-di-3-ethylbenzthiazoline sulfonate (ABTS) and 2 μL of 3% hydrogen peroxide solution) was added to the reaction solution, followed by a chromogenic reaction for 1 hour. The binding activity of the antibodies was quantified by photographing with a CCD camera and then performing an image analysis.
For orientation: In an ELISA, binding on a coated surface is turned into a signal by an enzyme label.

Test [4] addresses T3, peptide No. 23 of Table 11 (SEQ ID NO: 231) (human).
T3 peptide: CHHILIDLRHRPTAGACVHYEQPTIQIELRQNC
Nature of the test: PEPSCAN/CLIPS peptide ELISA, antibody 1 µg/mL. The method, then:
as §3

Test [5] deals with T4, peptide No. 3 of Table 11 (SEQ ID NO: 211) (human).
T4 peptide: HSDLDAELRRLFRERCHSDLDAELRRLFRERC
Nature of the test: PEPSCAN/CLIPS peptide ELISA, antibody 1 µg/mL. The method, then: as §3

Test [6] deals with T5, peptide No. 4 of Table 11 (SEQ ID NO: 212) (human).
T5 peptide: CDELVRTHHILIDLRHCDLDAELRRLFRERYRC
Nature of the test: PEPSCAN/CLIPS peptide ELISA, antibody 1 µg/mL. The method, then:
as §3

Test [7] addresses T6, peptide No. 6 of Table 11 (SEQ ID NO: 214) (human).
T6 peptide: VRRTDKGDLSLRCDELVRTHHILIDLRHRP
Nature of the test: PEPSCAN/CLIPS peptide ELISA, antibody 1 µg/mL. The method, then:
as §3

Test [8] deals with T7, peptide No. 19 of Table 11 (SEQ ID NO: 227) (human).
T7 peptide: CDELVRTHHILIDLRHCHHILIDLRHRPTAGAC
Nature of the test: PEPSCAN/CLIPS peptide ELISA, antibody 1 µg/mL. The method, then:
as §3

Test [9] has as its target T8, peptide No. 8 of Table 11 (SEQ ID NO: 216) (human).
T8 peptide: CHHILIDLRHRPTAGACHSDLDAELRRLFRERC
Nature of the test: PEPSCAN/CLIPS peptide ELISA, antibody 1 µg/mL. The method, then: as §3

The target of test [10] is T9, peptide No. 10 of Table 11 (SEQ ID NO: 218) (human).
T9 peptide: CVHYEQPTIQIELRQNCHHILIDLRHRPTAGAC
Nature of the test: PEPSCAN/CLIPS peptide ELISA, antibody 1 µg/mL. The method, then:
as §3

For test [11], the target named is T10, peptide No. 7 of Table 11 (SEQ ID NO: 215) (human).
T10 peptide: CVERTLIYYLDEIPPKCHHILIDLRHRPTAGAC
Nature of the test: PEPSCAN/CLIPS peptide ELISA, antibody 1 µg/mL. The method, then:
as §3

Test [12] deals with T11, peptide No. 15 of Table 11 (SEQ ID NO: 223) (human).
T11 peptide: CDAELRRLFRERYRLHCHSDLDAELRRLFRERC
Nature of the test: PEPSCAN/CLIPS peptide ELISA, antibody 1 µg/mL. The method, then: as §3

Test [13] has as its target T12, peptide No. 21 of Table 11 (SEQ ID NO: 229) (human).
T12 peptide: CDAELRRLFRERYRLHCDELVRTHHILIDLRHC
Nature of the test: PEPSCAN/CLIPS peptide ELISA, antibody 1 µg/mL. The method, then: as §3

B1: anti-hTROP-2 monoclonal antibody clone K5-70 (antibody, mouse IgG2a, V domains shown)
VH: QVQLQQPGAELVRPGASVKLSCKASGYTFTIYWINWVKQRPGQGLEWIGNIYPSDSYTNYNQKFKDKATLTVDKSSSTAYMQLSSPTSEDSAVYYCTRTSMADYWGQGTTLTVSS
VL: DILLTQSPAILSVSPGERVSFSCRASQSIGTSIHWYQQRTNGSPRLLIKYASESISGIPSRFSGSGSGTDFTLSINSVESEDIADYYCQQSNSWPFTFGSGTKLEIK
notes: mouse IgG2a, hybridoma FERM BP-11251; also called K5-70 antibody; mouse K5-70 antibody
For B1, the “mean fluorescence intensity, times that with PE-labeled anti-mouse IgG alone” value was determined as 45 times in test [1] and 44 times in [2].

B2: anti-hTROP-2 monoclonal antibody clone T6-16 (antibody, mouse IgG2a, V domains shown)
VH: EVQLQQSGPELVKPGASVKISCKASGYTFTDYNMHWVKQSHGKNLEWIGYIYPYNGGTGYNQRFKSRATMTVDKSSSTAYMELRSLTSDDSAVYYCAREDYGSSPSYAMDYWGQGTSVIVSS
VL: DVVMTQTPLSLPVSLGDQASISCRSSQSLVHGNGNTYLHWYLQKPGQSPKLLIYKVSNRFSGVPDRFSGSGSGTDFTLKISRVEAEDLGVYFCSQTTHVPTFGSGTKLEIK
notes: mouse IgG2a, hybridoma FERM BP-11346; also called T6-16 antibody
With B2, the “mean fluorescence intensity, times that with PE-labeled anti-mouse IgG alone” value came to 25 times in test [1] and 59 times in [2]. The “binding of 16-16” value is 601 in test [3]; 524 in test [4]; 714 in [5]; 713 in test [6]; 670 in test [7]; 534 in test [8]. Moreover, the “binding of 16-16” value stood at 620 in test [9]; 602 in test [10]; 626 in [11]; 566 in test [12]; 527 in test [13].
